Reference: patent publication US20150344570A1 (published 2015)
Residue numbers refer to the chain shown, from its start. Numbers in names are those of the source.

T1: FcgRIIa R type extracellular domain, C-terminal His tag (human, UniProt P12318 34-217)
T1 construct: extracellular domain; Soluble analyte in Biacore; also called FcγRIIa R; FcγRIIa(R); not shown: His tag at the C terminus
T1 sequence (looked up): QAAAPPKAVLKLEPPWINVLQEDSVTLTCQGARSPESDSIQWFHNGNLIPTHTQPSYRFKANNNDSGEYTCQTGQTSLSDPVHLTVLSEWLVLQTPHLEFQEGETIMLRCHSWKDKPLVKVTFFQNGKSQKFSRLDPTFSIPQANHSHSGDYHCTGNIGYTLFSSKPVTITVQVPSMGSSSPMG

T2: FcgRIIa H type extracellular domain, C-terminal His tag (human, UniProt P12318 34-217)
T2 construct: extracellular domain; Soluble analyte in Biacore; also called FcγRIIa H; FcγRIIa(H); not shown: His tag at the C terminus
T2 sequence (looked up): T1 sequence (looked up) with R134H

T3: FcgRIIb extracellular domain, C-terminal His tag (human, UniProt P31994 43-217)
T3 construct: extracellular domain; Soluble analyte in Biacore; also called FcγRIIb; not shown: His tag at the C terminus
T3 sequence (looked up): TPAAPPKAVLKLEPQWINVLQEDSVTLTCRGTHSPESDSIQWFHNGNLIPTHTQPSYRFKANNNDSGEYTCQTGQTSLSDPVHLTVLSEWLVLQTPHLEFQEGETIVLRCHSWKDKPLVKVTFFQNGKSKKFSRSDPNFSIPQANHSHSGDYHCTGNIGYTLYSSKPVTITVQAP

T4: FcgRIIaR (human, UniProt P12318 34-217)
T4 construct: extracellular domain; also called FcγRIIa R; FcγRIIa type R; not shown: His tag at the C terminus
T4 sequence (looked up): T1 sequence (looked up)

T5: FcgRIIaH (human, UniProt P12318 34-217)
T5 construct: extracellular domain; also called FcγRIIa H; FcγRIIa type H; not shown: His tag at the C terminus
T5 sequence (looked up): T1 sequence (looked up) with R134H

T6: FcgRIIb (human, UniProt P31994 43-217)
T6 construct: extracellular domain; also called FcγRIIb; CD32B; not shown: His tag at the C terminus
T6 sequence (looked up): T3 sequence (looked up)

B1: H240-Kn179/H240-Hl089/L73-k0 (antibody, human IgG1, kappa)
heavy 1: QDQLVQSGAEVKKPGASVKVSCKASGFNIKDTYIQWVRQAPGQGLEWMGRIDPLRKQTKYREKFEGRVTITADTSTNTAYMELSSLRSEDTAVYYCVRSGREFDYWGQGTLVTVSSASTKGPSVFPLAPSSKSTSGGTAALGCLVKDYFPEPVTVSWNSGALTSGVHTFPAVLQSSGLYSLSSVVTVPSSSLGTQTYICNVNHKPSNTKVDKKVEPKSCDKTHTCPPCPAPEYYWGPMVFLFPPKPKDTLMISRTPEVTCVVVDVSDEDPEVKFNWYVDGVEVHNAKTKPREKQYNATYRVVSVLTVLHQDWLNGKEYKCKVSNKDLPAPIEKTISKAKGQPREPQVCTLPPSRDELTKNQVSLWCLVKGFYPSDIAVEWESNGQPENNYKTTPPVLDSDGSFFLYSKLTVDKSRWQQGNVFSCSVMHEALHNHYTQKSLSLSP
heavy 2: QDQLVQSGAEVKKPGASVKVSCKASGFNIKDTYIQWVRQAPGQGLEWMGRIDPLRKQTKYREKFEGRVTITADTSTNTAYMELSSLRSEDTAVYYCVRSGREFDYWGQGTLVTVSSASTKGPSVFPLAPSSKSTSGGTAALGCLVKDYFPEPVTVSWNSGALTSGVHTFPAVLQSSGLYSLSSVVTVPSSSLGTQTYICNVNHKPSNTKVDKKVEPKSCDKTHTCPPCPAPELLTGPSVFLFPPKPKDTLMISRTPEVTCVVVDVSHEEPEVKFNWYVDGVEVHNAKTKPREEQYNSTYRVVSVLTVLHQDWLNGKEYKCKVSNDALPKPIEETISKAKGQPREPQVYTLPPSRCELTKNQVSLSCAVKGFYPSDIAVEWESNGQPENNYKTTPPVLDSDGSFFLVSKLTVDKSRWQQGNVFSCSVMHEALHNHYTQKSLSLSP
light: DIQMTQSPSSLSASVGDRVTITCRASQDIHKYIAWYQQKPGQAPRLLIQYTSTLQPGVPSRFSGSGSGTDYTFTISSLQPEDIATYYCLQYEQLRTFGGGTKVEIKRTVAAPSVFIFPPSDEQLKSGTASVVCLLNNFYPREAKVQWKVDNALQSGNSQESVTEQDSKDSTYSLSSTLTLSKADYEKHKVYACEVTHQGLSSPVTKSFNRGEC
notes: Combination of E294R in the Kn chain and G236T in the Hl chain; also called H240-Kn179/H240-HI089/L73-k0
B2: H240-Kn033/H240-Hl033/L73-k0 (antibody, human IgG1, kappa)
heavy 1: not shown
heavy 2: not shown
light: B1 light
notes: Anti-epiregulin antibody; native IgG1 with only knobs-into-holes alterations
B3: H240-Kn180/H240-Hl089/L73-k0 (antibody, human IgG1, kappa)
heavy 1: B1 heavy 1 with K293R
heavy 2: B1 heavy 2
light: B1 light
notes: Combination of E294K in the Kn chain and G236T in the Hl chain; also called H240-Kn180/H240-HI089/L73-k0
B4: H240-Kn204/H240-Hl211/L73-k0 (antibody, human IgG1, kappa)
heavy 1: B1 heavy 1 with Y234L, W235G, M238S, D267H, K289Y, K293E, Y295W, A297S, D326A
heavy 2: B1 heavy 2 with T235G, S238D, E269D, D325K, K329M, E333V
light: B1 light
notes: L234Y/K290Y/Y296W in one H chain, S239D/A330M/K334V in the other
B5: H240-Kn193/H240-Hl204/L73-k0 (antibody, human IgG1, kappa)
heavy 1: B1 heavy 1 with Y234N, K293R
heavy 2: B1 heavy 2 with I331E
light: B1 light
notes: H240-Kn193 is H240-Kn120 with Y235N and E294R; also called H240-Kn193/H240-HI204/L73-k0
B6: H240-Kn032/H240-Hl032/L73-k0 (antibody, human IgG1, kappa)
heavy 1: B1 heavy 1 with Y233L, Y234L, W235G, M238D, D267H, K293E, A297S, D326A, A329L, I331E
heavy 2: B1 heavy 2 with T235G, S238D, E269D, D325K, K329L, I331E, E333K
light: B1 light
notes: S239D/A330L/I332E in both H chains
B7: H240-Kn192/H240-Hl204/L73-k0 (antibody, human IgG1, kappa)
heavy 1: B1 heavy 1 with Y234N
heavy 2: B1 heavy 2 with I331E
light: B1 light
notes: H240-Kn192 is H240-Kn120 with Y235N and E294K; also called H240-Kn192/H240-HI204/L73-k0
B8: H240-Kn037/H240-Hl036/L73-k0 (antibody, human IgG1, kappa)
heavy 1: B1 heavy 1 with Y233L, Y234L, W235A, M238D, D267H, K293E, A297S, D326A, I331E
heavy 2: B1 heavy 2 with T235A, S238D, E269D, D325K, K329A, I331E, E333K
light: B1 light
notes: it says that both H chains have G236A/S239D/I332E

How the values were obtained:
[1] = target: T1, FcgRIIa R type extracellular domain, …; experiment: SPR (Biacore); KD of H240-Kn120/H240-Hl068/L73-k0 divided by KD of the variant
Experimental: (§1) H240-Kn179/H240-H1089/L73-k0, H240-Kn180/H240-Hl089/L73-k0, H240-Kn192/H240-Hl204/L73-k0, and H240-Kn193/H240-Hl204/L73-k0 were prepared by combining each of H240-Kn192 and H240-Kn193 as an H chain, L73-k0 as the L chain, and H240-Hl089 and H240-Hl204 as the other H chain according to the method described in Reference Example 1. The variants described above were assessed for their binding to FcγR according to the method described in Reference Example 8.
(§2) Analysis of interaction between objective antibody and the FcγR was carried out using Biacore T100 (GE Healthcare), Biacore T200, Biacore A100, and Biacore 4000. HBS-EP+ (GE Healthcare) was used as the running buffer, and the measurement temperature was set to 25° C. Chips produced by immobilizing the antigen peptide by the amine coupling method to a Series S sensor Chip CM5 (GE Healthcare), chips produced by allowing preliminarily biotinylated antigen peptides to interact with and immobilize onto a Series S Sensor Chip SA (certified) (GE Healthcare), chips produced by immobilizing Protein L (ACTIGEN, BioVision) to Series S Sencor Chip CM5 (GE Healthcare), or chips produced by immobilizing Protein A/G (Thermo Scientific) to Series S Sencor Chip CM5 (GE Healthcare) were used. Antibodies of interest were captured onto these chips, and allowed to interact to each FcγR diluted with running buffer. To regenerate and repeatedly use the chip, the antibodies captured onto the chip were washed off by reacting 10 mM glycine-HCl, pH 1.5.

[2] = target: T2, FcgRIIa H type extracellular domain, …; experiment: as above
Experimental: as §1, §2

[3] = target: T3, FcgRIIb extracellular domain, …; experiment: as above
Experimental: as §1, §2

[4] = target: T7, FcgRIIIa F type extracellular domain, C-terminal His tag (human, UniProt P08637 17-208); experiment: as above
T7 construct: extracellular domain; Soluble analyte in Biacore; also called FcγRIIIa F; not shown: His tag at the C terminus
T7 sequence (P08637 17-208): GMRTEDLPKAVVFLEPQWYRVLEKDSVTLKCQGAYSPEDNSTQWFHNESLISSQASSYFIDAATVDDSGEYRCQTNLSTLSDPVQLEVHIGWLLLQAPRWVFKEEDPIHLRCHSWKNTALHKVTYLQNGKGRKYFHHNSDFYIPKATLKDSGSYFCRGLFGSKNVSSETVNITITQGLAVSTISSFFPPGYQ
Experimental: as §1, §2

[5] = target: T8, FcgRIIIa V type extracellular domain, C-terminal His tag (human, UniProt P08637 17-208); experiment: as above
T8 construct: extracellular domain; Soluble analyte in Biacore; also called FcγRIIIa V; not shown: His tag at the C terminus
T8 sequence (P08637 17-208 F176V): as the sequence (P08637 17-208) above, with F160V counted along it
Experimental: as §1, §2

FcgRIIaR = target: T4, FcgRIIaR; experiment: SPR (Biacore); KD of H240-Kn033/H240-Hl033/L73-k0 divided by KD of the variant
Experimental: (§3) Binding of the produced variants to FcgRIa, FcgRIIaR, FcgRIIaH, FcgRIIb, FcgRIIIaF, and FcgRIIIaV was measured according to the method of Reference Example 8.
as §2

FcgRIIaH = target: T5, FcgRIIaH; experiment: as above
Experimental: as §3, §2

FcgRIIb = target: T6, FcgRIIb; experiment: as above
Experimental: as §3, §2

FcgRIIIaF = target: T9, FcgRIIIaF (human, UniProt P08637 17-208); experiment: as above
T9 construct: extracellular domain; also called FcγRIIIa F; not shown: His tag at the C terminus
T9 sequence (P08637 17-208): as the sequence (P08637 17-208) above
Experimental: as §3, §2

FcgRIIIaV = target: T10, FcgRIIIaV (human, UniProt P08637 17-208); experiment: as above
T10 construct: extracellular domain; also called FcγRIIIa V; not shown: His tag at the C terminus
T10 sequence (P08637 17-208 F176V limits assumed): as the sequence (P08637 17-208) above, with F160V counted along it
Experimental: as §3, §2

Row | Binder | relative KD [1] | relative KD [2] | relative KD [3] | relative KD [4] | relative KD [5] | fold 2aR (FcgRIIaR) [fold] | fold 2aH (FcgRIIaH) [fold] | fold 2b (FcgRIIb) [fold] | fold 3aF (FcgRIIIaF) [fold] | fold 3aV (FcgRIIIaV) [fold]
1 | B1 | 1.1 | 0.9 | 0.4 | 0.1 | 0 |  |  |  |  | 
2 | B2 |  |  |  |  |  | 1 | 1 | 1 | 1 | 1
3 | B3 | 1.3 | 1.1 | 0.4 | 0.1 | 0 |  |  |  |  | 
4 | B4 |  |  |  |  |  | 1.2 | 0.7 | 2.5 | 20.7 | 6.5
5 | B5 | 1.3 | 1.2 | 0.5 | 0.2 | 0.2 |  |  |  |  | 
6 | B6 |  |  |  |  |  | 2.2 | 0.8 | 5.3 | 31.9 | 15.5
7 | B7 | 1.1 | 1 | 0.5 | 0.2 | 0.2 |  |  |  |  | 
8 | B8 |  |  |  |  |  | 25.5 | 11.3 | 8.7 | 13.8 | 7.1
